Publication doi:10.1101/2024.07.31.606000 (bioRxiv, 2024)

How the values were obtained:
[1] = target: complement factor H (UniProt P08603 19-1231); assay: SPR
[2] = target: complement C8 (UniProt P07357 31-584; P07358 55-591; P07360 21-202); assay: SPR
complement C8, sequence (P07357 31-584, chain 1 of 3): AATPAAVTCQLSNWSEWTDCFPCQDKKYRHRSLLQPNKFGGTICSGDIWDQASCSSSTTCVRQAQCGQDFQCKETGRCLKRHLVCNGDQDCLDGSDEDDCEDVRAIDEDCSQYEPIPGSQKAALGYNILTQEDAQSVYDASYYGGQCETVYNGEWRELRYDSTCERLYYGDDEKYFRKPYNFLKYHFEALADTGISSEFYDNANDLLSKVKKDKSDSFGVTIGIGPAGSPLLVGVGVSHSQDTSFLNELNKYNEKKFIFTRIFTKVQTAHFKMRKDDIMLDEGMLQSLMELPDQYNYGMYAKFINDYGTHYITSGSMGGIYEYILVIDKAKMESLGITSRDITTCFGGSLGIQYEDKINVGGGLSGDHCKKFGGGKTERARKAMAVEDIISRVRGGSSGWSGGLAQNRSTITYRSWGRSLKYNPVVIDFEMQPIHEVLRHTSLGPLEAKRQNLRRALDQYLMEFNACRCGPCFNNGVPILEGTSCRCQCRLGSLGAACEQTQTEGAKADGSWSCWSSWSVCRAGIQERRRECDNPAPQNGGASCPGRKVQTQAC
complement C8, sequence (P07358 55-591, chain 2 of 3): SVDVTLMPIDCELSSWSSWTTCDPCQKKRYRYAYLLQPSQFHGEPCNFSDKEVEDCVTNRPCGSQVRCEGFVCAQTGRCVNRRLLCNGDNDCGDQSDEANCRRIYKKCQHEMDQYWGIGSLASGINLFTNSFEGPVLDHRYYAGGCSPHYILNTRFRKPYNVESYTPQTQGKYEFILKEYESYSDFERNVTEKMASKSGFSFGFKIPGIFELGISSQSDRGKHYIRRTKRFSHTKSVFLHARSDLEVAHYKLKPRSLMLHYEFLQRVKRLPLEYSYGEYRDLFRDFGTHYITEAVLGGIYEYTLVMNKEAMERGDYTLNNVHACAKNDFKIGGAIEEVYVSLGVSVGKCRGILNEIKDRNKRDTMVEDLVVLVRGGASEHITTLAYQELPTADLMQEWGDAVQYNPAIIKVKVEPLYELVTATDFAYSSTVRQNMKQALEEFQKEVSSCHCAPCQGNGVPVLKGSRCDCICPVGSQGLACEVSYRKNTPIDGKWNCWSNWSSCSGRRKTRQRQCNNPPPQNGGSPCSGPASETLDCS
complement C8, sequence (P07360 21-202, chain 3 of 3): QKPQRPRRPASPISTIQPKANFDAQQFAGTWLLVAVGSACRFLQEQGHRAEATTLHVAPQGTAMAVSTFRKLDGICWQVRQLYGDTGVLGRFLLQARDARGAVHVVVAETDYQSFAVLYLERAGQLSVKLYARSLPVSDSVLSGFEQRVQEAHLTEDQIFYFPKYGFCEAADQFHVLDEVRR

complement factor H, sequence (P08603 19-1231): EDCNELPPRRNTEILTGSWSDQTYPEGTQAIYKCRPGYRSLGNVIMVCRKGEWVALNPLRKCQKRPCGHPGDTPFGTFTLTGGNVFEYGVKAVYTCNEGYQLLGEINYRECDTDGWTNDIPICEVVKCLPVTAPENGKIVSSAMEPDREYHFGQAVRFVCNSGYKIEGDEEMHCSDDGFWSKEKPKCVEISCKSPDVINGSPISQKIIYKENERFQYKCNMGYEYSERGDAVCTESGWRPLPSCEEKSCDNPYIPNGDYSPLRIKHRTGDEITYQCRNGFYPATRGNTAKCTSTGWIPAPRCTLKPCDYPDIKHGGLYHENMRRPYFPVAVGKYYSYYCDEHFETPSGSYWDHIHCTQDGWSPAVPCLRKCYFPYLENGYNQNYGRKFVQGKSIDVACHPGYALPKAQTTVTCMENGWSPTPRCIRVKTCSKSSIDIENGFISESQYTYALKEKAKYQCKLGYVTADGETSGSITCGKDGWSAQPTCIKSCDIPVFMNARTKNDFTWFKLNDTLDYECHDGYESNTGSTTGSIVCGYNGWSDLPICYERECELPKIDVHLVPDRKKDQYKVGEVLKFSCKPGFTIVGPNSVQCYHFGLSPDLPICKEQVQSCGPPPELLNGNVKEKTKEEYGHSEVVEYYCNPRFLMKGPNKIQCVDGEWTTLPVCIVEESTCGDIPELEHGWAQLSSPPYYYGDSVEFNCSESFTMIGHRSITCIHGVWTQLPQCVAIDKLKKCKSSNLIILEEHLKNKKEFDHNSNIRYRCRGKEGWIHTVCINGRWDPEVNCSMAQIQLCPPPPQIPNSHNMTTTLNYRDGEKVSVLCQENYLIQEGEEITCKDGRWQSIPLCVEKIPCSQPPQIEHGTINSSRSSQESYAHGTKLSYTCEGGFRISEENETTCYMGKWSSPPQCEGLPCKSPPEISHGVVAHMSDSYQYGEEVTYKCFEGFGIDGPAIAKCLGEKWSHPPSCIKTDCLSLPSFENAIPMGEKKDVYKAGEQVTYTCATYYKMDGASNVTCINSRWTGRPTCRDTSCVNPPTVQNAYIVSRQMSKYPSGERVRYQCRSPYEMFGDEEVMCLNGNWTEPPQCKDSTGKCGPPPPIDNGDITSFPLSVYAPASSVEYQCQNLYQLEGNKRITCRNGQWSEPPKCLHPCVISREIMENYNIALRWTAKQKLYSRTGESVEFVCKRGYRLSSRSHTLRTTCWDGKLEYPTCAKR

B1: recombinant full-length thrombospondin-1 (natural protein)
chain: not shown
With B1 the Kd [1] was 203 nM and the Kd [2] was 311 nM.
